# Positions count from the first letter of the chain named. In names and notes the source's numbering stands.
# T1: rhesus ILT3-His tagged recombinant protein (rhesus monkey (Macaca mulatta))
# T1 construct: also called ILT3_MM; not shown: His tag
# T1 chain: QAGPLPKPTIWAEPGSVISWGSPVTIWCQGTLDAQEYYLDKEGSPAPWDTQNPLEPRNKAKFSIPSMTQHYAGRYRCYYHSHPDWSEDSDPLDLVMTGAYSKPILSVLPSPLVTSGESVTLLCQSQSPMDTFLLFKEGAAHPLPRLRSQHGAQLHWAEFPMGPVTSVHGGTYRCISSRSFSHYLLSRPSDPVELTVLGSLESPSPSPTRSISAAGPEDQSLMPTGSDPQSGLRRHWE
# B1: Chimeric anti-ILT3 52B8 mouse VH M64L/human IgG4 (S228P):mouse VL/human Kappa (antibody, V domains shown)
# VH: EVQLVESGGDLVKPGGSLKLSCAASGFTFSNYGMSWVRQTPDRRLEWVATISGGGDYTNYPDSLRGRFTISRDNAKNTLYLQMSSLKSEDTAMYYCGRRLWFRSLYYAMDYWGQGTSVTVSS
# VL: NIVLTQSPASLAVSLGQRATISCRASEKVDSFGNSFMHWYQQKPGQPPKLLIYLTSNLDSGVPARFSGSGSRTDFALTIDPVEADDAATYYCQQNNEDPYTFGGGTKLEIKR
# notes: also called mAb 75
# B2: Chimeric anti-ILT3 52B8 mouse VH M64V/human IgG4 (S228P):mouse VL/human Kappa (antibody, V domains shown)
# VH: B1 VH with L64V
# VL: B1 VL
# notes: also called mAb 74
# B3: Humanized anti-ILT3 mAb (52B8 VH1 M64L/VL2) IgG4 S228P/Kappa (antibody, V domains shown)
# VH: EVQLVESGGGLVQPGGSLRLSCAASGFTFSNYGMSWVRQAPGKGLEWVATISGGGDYTNYPDSLRGRFTISRDNAKNSLYLQMNSLRAEDTAVYYCGRRLWFRSLYYAMDYWGQGTLVTVSS
# VL: DIVLTQSPDSLAVSLGERATINCRASEKVDSFGNSFMHWYQQKPGQPPKLLIYLTSNLDSGVPDRFSGSGSGTDFTLTISSLQAEDVAVYYCQQNNEDPYTFGQGTKLEIKR
# notes: also called mAb 18
# B4: Humanized anti-ILT3 mAb (52B8 VH1/VL2) IgG4 S228P/Kappa (antibody, V domains shown)
# VH: B3 VH with L64M
# VL: B3 VL
# notes: also called mAb 2
# B5: Humanized anti-ILT3 mAb (52B8 VH2 M64L/VL1) IgG4 S228P/Kappa (antibody, V domains shown)
# VH: B3 VH with R87K
# VL: B3 VL with G72R
# notes: also called mAb 21
# B6: Humanized anti-ILT3 mAb (52B8 VH2 M64V/VL2) IgG4 S228P/Kappa (antibody, V domains shown)
# VH: B3 VH with L64V, R87K
# VL: B3 VL
# notes: also called mAb 14
# B7: Humanized anti-ILT3 mAb (52B8 VH2/VL2) IgG4 S228P/Kappa (antibody, V domains shown)
# VH: B3 VH with L64M, R87K
# VL: B3 VL
# notes: also called mAb 6
# B8: Humanized anti-ILT3 mAb (52B8 VH1 M64V/VL5 N34Q) IgG4 S228P/Kappa (antibody, V domains shown)
# VH: B3 VH with L64V
# VL: DIQLTQSPSSLSASVGDRVTITCRASEKVDSFGQSFMHWYQQKPGKAPKLLIYLTSNLDSGVPSRFSGSGSGTDFTLTISSLQPEDFATYYCQQNNEDPYTFGQGTKLEIKR
# notes: also called mAb 46; humanized 52B8
# B9: Humanized anti-ILT3 mAb (52B8 VH2 M64L/VL2) IgG4 S228P/Kappa (antibody, V domains shown)
# VH: B3 VH with R87K
# VL: B3 VL
# notes: also called mAb 22
# B10: Humanized anti-ILT3 mAb ((52B8 VH1 M64V/VL2) L234A L235A D265S) IgG1/Kappa (antibody)
# heavy: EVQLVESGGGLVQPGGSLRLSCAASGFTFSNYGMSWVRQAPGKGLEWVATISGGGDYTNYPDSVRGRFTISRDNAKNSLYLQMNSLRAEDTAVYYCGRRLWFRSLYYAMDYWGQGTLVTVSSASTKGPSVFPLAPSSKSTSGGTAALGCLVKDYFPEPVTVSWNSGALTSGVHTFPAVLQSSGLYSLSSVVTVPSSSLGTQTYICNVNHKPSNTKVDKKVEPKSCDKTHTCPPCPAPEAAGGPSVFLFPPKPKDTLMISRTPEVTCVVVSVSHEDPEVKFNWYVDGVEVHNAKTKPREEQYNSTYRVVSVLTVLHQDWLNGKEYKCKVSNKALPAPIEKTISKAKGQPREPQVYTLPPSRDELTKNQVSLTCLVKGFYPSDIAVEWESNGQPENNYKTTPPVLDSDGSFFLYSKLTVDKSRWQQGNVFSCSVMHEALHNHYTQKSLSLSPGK
# light: DIVLTQSPDSLAVSLGERATINCRASEKVDSFGNSFMHWYQQKPGQPPKLLIYLTSNLDSGVPDRFSGSGSGTDFTLTISSLQAEDVAVYYCQQNNEDPYTFGQGTKLEIKRTVAAPSVFIFPPSDEQLKSGTASVVCLLNNFYPREAKVQWKVDNALQSGNSQESVTEQDSKDSTYSLSSTLTLSKADYEKHKVYACEVTHQGLSSPVTKSFNRGEC
# notes: also called mAb 25
# B11: Humanized anti-ILT3 mAb (52B8 VH1 M64V W101Y/VL5 S35N) IgG4 S228P/Kappa (antibody, V domains shown)
# VH: B3 VH with L64V, W101Y
# VL: B8 VL with Q34N, S35N
# notes: also called mAb 56
# B12: Humanized anti-ILT3 mAb (52B8 VH1 M64V/VL5 N34D) IgG4 S228P/Kappa (antibody, V domains shown)
# VH: B3 VH with L64V
# VL: B8 VL with Q34D
# notes: also called mAb 47
# B13: Humanized anti-ILT3 mAb (52B8 VH1 M64V/VL5 S35A) IgG4 S228P/Kappa (antibody, V domains shown)
# VH: B3 VH with L64V
# VL: B8 VL with Q34N, S35A
# notes: also called mAb 44
# B14: Humanized anti-ILT3 mAb (52B8 VH1 M64V/VL5 S35N) IgG4 S228P/Kappa (antibody, V domains shown)
# VH: B3 VH with L64V
# VL: B8 VL with Q34N, S35N
# notes: also called mAb 45
# B15: Humanized anti-ILT3 mAb (52B8 VH1/VL3) IgG4 S228P/Kappa (antibody, V domains shown)
# VH: B3 VH with L64M
# VL: EIVLTQSPATLSLSPGERATLSCRASEKVDSFGNSFMHWYQQKPGQAPRLLIYLTSNLDSGVPARFSGSGSRTDFTLTISSLEPEDFAVYYCQQNNEDPYTFGQGTKLEIKR
# notes: also called mAb 3
# B16: Humanized anti-ILT3 mAb (52B8 VH1 M64L/VL3) IgG4 S228P/Kappa (antibody, V domains shown)
# VH: B3 VH
# VL: B15 VL
# notes: also called mAb 19
# B17: Humanized anti-ILT3 mAb (52B8 VH1 M64L/VL4) IgG4 S228P/Kappa (antibody, V domains shown)
# VH: B3 VH
# VL: B15 VL with V62I, R72G
# notes: also called mAb 20
# B18: Humanized anti-ILT3 mAb (52B8 VH1 M64V/VL3) IgG4 S228P/Kappa (antibody, V domains shown)
# VH: B3 VH with L64V
# VL: B15 VL
# notes: also called mAb 11
# B19: Humanized anti-ILT3 mAb (52B8 VH1 M64V/VL4) IgG4 S228P/Kappa (antibody, V domains shown)
# VH: B3 VH with L64V
# VL: B15 VL with V62I, R72G
# notes: also called mAb 12
# B20: Humanized anti-ILT3 mAb (52B8 VH1/VL4) IgG4 S228P/Kappa (antibody, V domains shown)
# VH: B3 VH with L64M
# VL: B15 VL with V62I, R72G
# notes: also called mAb 4
# B21: Humanized anti-ILT3 mAb (52B8 VH2 M64L/VL3) IgG4 S228P/Kappa (antibody, V domains shown)
# VH: B3 VH with R87K
# VL: B15 VL
# notes: also called mAb 23
# B22: Humanized anti-ILT3 mAb (52B8 VH2 M64L/VL4) IgG4 S228P/Kappa (antibody, V domains shown)
# VH: B3 VH with R87K
# VL: B15 VL with V62I, R72G
# notes: also called mAb 24
# B23: Humanized anti-ILT3 mAb (52B8 VH2 M64V/VL3) IgG4 S228P/Kappa (antibody, V domains shown)
# VH: B3 VH with L64V, R87K
# VL: B15 VL
# notes: also called mAb 15
# B24: Humanized anti-ILT3 mAb (52B8 VH2 M64V/VL4) IgG4 S228P/Kappa (antibody, V domains shown)
# VH: B3 VH with L64V, R87K
# VL: B15 VL with V62I, R72G
# notes: also called mAb 16
# B25: Humanized anti-ILT3 mAb (52B8 VH2/VL3) IgG4 S228P/Kappa (antibody, V domains shown)
# VH: B3 VH with L64M, R87K
# VL: B15 VL
# notes: also called mAb 7
# B26: Humanized anti-ILT3 mAb (52B8 VH2/VL4) IgG4 S228P/Kappa (antibody, V domains shown)
# VH: B3 VH with L64M, R87K
# VL: B15 VL with V62I, R72G
# notes: also called mAb 8
# Target: T2, human ILT3 expressed on cells (human, UniProt Q8NHJ6 22-448)
# T2 construct: whole, on cells; also called huILT3; LILRB4
# Experiment: cELISA, CHO human ILT3 cells
row,Binder,EC50
1,B1,0.086 µg/mL
2,B2,0.075 µg/mL
3,B3,0.079 µg/mL
4,B4,0.7 µg/mL
5,B5,0.079 µg/mL
6,B6,0.077 µg/mL
7,B7,0.1 µg/mL
8,B8,0.088 µg/mL
9,B9,0.057 µg/mL

# Target: T3, Human ILT3 (LILRB4) extracellular domain with C-terminal His Tag (human, UniProt Q8NHJ6 22-259)
# T3 construct: the claims count residues 1-238 as the extracellular domain; also called human ILT3-His; ILT3_H
# Experiment: SPR (Biacore), human ILT3-His
# Method: (§1) The binding kinetics and affinities of anti-human ILT3 clones for human or rhesus ILT3-His tagged recombinant protein were measured by surface plasmon resonance using a Biacore™ T200 system (GE Healthcare, Piscataway, NJ). HBS-EP+ buffer (BR-1006-69) was used as the running buffer. Anti-human Fc antibody (Human Fc Capture Kit, BR100839, GE Healthcare) was immobilized via amine coupling chemistry in all four flow cells on a Series S CM5 sensor chip (BR100530 or 29149603, GE Healthcare) following manufacturer instructions. Flow cell 1 was used as reference for background subtraction and was not used for capture. […] Following each injection cycle, all four flow cells were regenerated using 30 second injection of 3M MgCl₂ solution at a flow rate of 10 μL/minute. Reference subtracted sensorgrams were fit to a 1:1 Langmuir Binding Model in the Biacore™ T200 Evaluation Software (Version 2.0) to determine the association (ka) and dissociation (kd) rate constants and the equilibrium dissociation constant KD (=kd/ka).
Binder,Kd,binding result
B1,0.41 nM,–
B2,0.44 nM,–
B3,1 nM,–
B4,1.1 nM,–
B5,0.88 nM,–
B6,1 nM,–
B7,1.1 nM,–
B10,0.74 nM,–
B11,–,no binding (tested: ILT3-His injected up to 20 nM)
B12,3.8 nM,–
B8,0.77 nM,–
B13,2.6 nM,–
B14,4.7 nM,–
B9,0.97 nM,–
B15,1.1 nM,–
B16,0.99 nM,–
B17,1.3 nM,–
B18,1.1 nM,–
B19,1.5 nM,–
B20,1.4 nM,–
B21,0.96 nM,–
B22,1.2 nM,–
B23,1 nM,–
B24,1.4 nM,–
B25,0.96 nM,–
B26,1.3 nM,–

# Target: T4, Rhesus monkey ILT3 expressed on CHO-K1 cells (rhesus monkey (Macaca mulatta))
# T4 construct: whole, on cells; also called rhILT3; CHO-rhesus ILT3
# Experiment: cELISA, CHO rhesus ILT3 cells
row,Binder,EC50
1,B1,0.137 µg/mL
2,B2,0.096 µg/mL
3,B3,0.137 µg/mL
4,B4,0.109 µg/mL
5,B5,0.112 µg/mL
6,B6,0.126 µg/mL
7,B7,0.118 µg/mL
8,B8,0.12 µg/mL
9,B9,0.081 µg/mL

# Target: T1, rhesus ILT3-His tagged recombinant …
# Experiment: SPR (Biacore), rhesus ILT3-His
# Method: as §1
Binder,Kd,binding result
B1,9.3 nM,–
B2,9.2 nM,–
B3,22 nM,–
B4,20 nM,–
B5,27 nM,–
B6,22 nM,–
B7,21 nM,–
B10,8.7 nM,–
B11,–,no binding (tested: ILT3-His injected up to 20 nM)
B12,115 nM,–
B8,15 nM,–
B13,34 nM,–
B14,–,no binding (tested: ILT3-His injected up to 20 nM)
B9,21 nM,–
B15,26 nM,–
B16,26 nM,–
B17,29 nM,–
B18,27 nM,–
B19,29 nM,–
B20,29 nM,–
B21,24 nM,–
B22,27 nM,–
B23,26 nM,–
B24,29 nM,–
B25,26 nM,–
B26,27 nM,–

# Target: T3, Human ILT3 (LILRB4) extracellular …
# Experiment: Biacore SPR, column huILT3 KD (nM)
row,Binder,Kd
1,B10,0.74 nM

# Target: T1, rhesus ILT3-His tagged recombinant …
# Experiment: Biacore SPR, column rhILT3 KD (nM)
row,Binder,Kd
1,B10,8.66 nM

# — patent US20260167718A1 (Merck Sharp & Dohme, published 2026)
